Experimental data: the Immune Epitope Database (IEDB)

What was measured:
HLA-B*48:01 = test: IEDB peptide-MHC binding, purified MHC/direct/fluorescence; filed as Kd, often an IC50 or EC50 that approximates it; ≥ and ≤ were set here for values at or beyond the usual limits of such assays; details: source organism: Buffalopox virus
HLA-B*15:01 [1] = test: as above
HLA-B*27:05 = test: as above
HLA-A*68:02 [2] = test: as above; details: source organism: Buffalopox virus
HLA-A*26:03 = test: as above
HLA-A*02:01 [3] = test: as above
HLA-A*69:01 = test: as above
HLA-A*01:01 [4] = test: as above
HLA-B*57:01 = test: as above; details: source organism: Buffalopox virus
HLA-B*39:01 = test: as above; details: source organism: Buffalopox virus
HLA-B*40:01 [5] = test: as above
HLA-B*46:01 = test: as above; details: source organism: Buffalopox virus
HLA-B*58:01 = test: as above
HLA-B*15:17 = test: IEDB peptide-MHC binding, purified MHC/competitive/fluorescence; filed as Kd, often an IC50 or EC50 that approximates it; ≥ and ≤ were set here for values at or beyond the usual limits of such assays; details: source organism: Variola virus
HLA-A*26:02 = test: as above; details: source organism: Variola virus
HLA-B*18:01 = test: as above; details: source organism: Variola virus
HLA-B*35:01 = test: as above; details: source organism: Variola virus
HLA-B*07:02 [6] = test: as above; details: source organism: Variola virus
HLA-B*51:01 = test: IEDB peptide-MHC binding, purified MHC/direct/fluorescence; filed as Kd, often an IC50 or EC50 that approximates it; ≥ and ≤ were set here for values at or beyond the usual limits of such assays; details: source organism: Mycobacterium tuberculosis
HLA-B*07:02 [7] = test: as above
HLA-B*45:06 = test: IEDB peptide-MHC binding, purified MHC/competitive/fluorescence; filed as Kd, often an IC50 or EC50 that approximates it; ≥ and ≤ were set here for values at or beyond the usual limits of such assays
HLA-A*32:07 = test: as above
HLA-B*15:42 = test: as above
HLA-C*04:01 = test: as above
HLA-B*15:01 [8] = test: IEDB peptide-MHC binding, purified MHC/competitive/fluorescence; ≥ and ≤ were set here for values at or beyond the usual limits of such assays; details: source organism: Zaire ebolavirus
HLA-A*02:01 [9] = test: as above; details: source organism: Zaire ebolavirus
HLA-A*01:01 [10] = test: as above; details: source organism: Zaire ebolavirus
HLA-A*24:02 [11] = test: as above; details: source organism: Zaire ebolavirus
HLA-A*30:01 = test: IEDB peptide-MHC binding, purified MHC/competitive/radioactivity; filed as Kd, often an IC50 or EC50 that approximates it; ≥ and ≤ were set here for values at or beyond the usual limits of such assays; details: source organism: Dengue virus 1 Brazil/97-11/1997
HLA-A*32:01 = test: as above; details: source organism: Dengue virus 1 Brazil/97-11/1997
HLA-A*11:01 = test: IEDB peptide-MHC binding, purified MHC/direct/fluorescence; filed as Kd, often an IC50 or EC50 that approximates it; ≥ and ≤ were set here for values at or beyond the usual limits of such assays
HLA-B*83:01 = test: IEDB peptide-MHC binding, purified MHC/competitive/fluorescence; filed as Kd, often an IC50 or EC50 that approximates it; ≥ and ≤ were set here for values at or beyond the usual limits of such assays
HLA-A*31:01 = test: as above; details: source organism: dengue virus type 1
HLA-A*68:02 [12] = test: as above; details: source organism: Francisella tularensis subsp. tularensis FSC198
HLA-B*15:01 [13] = test: as above; details: source organism: Yersinia pestis Nepal516
HLA-B*40:01 [14] = test: as above; details: source organism: Yersinia pestis Nepal516
HLA-B*44:02 = test: IEDB peptide-MHC binding, purified MHC/direct/fluorescence; filed as Kd, often an IC50 or EC50 that approximates it; ≥ and ≤ were set here for values at or beyond the usual limits of such assays; details: source organism: Influenza A virus (A/Duck/Shantou/2134/00(H9N2))
HLA-B*08:02 = test: as above; details: source organism: Influenza A virus (A/Taiwan/2/2006(H1N1))
HLA-A*26:01 = test: as above; details: source organism: Influenza A virus (A/Taiwan/2/2006(H1N1))
HLA-B*08:01 = test: as above; details: source organism: Influenza A virus (A/Duck/Shantou/2134/00(H9N2))
HLA-A*24:02 [15] = test: as above; details: source organism: Influenza A virus (A/Duck/Shantou/2134/00(H9N2))
HLA-A*03:01 = test: as above; details: source organism: Influenza A virus (A/Duck/Shantou/2134/00(H9N2))
HLA-A*02:01 [16] = test: IEDB peptide-MHC binding, purified MHC/competitive/fluorescence; filed as Kd, often an IC50 or EC50 that approximates it; ≥ and ≤ were set here for values at or beyond the usual limits of such assays; details: source organism: Toxoplasma gondii GT1
HLA-A*02:06 = test: as above; details: source organism: Toxoplasma gondii GT1
[17] = source organism: Buffalopox virus
[18] = source organism: Mycobacterium tuberculosis
[19] = source organism: dengue virus type 1
[20] = source organism: Francisella tularensis subsp. tularensis FSC198
[21] = source organism: Yersinia pestis Nepal516
[22] = source organism: Influenza A virus (A/Duck/Shantou/2134/00(H9N2))

With IHSDQLSKF the Kd (HLA-B*48:01) was no less than 20 µM, the Kd (HLA-B*15:01 [1]; [17]) was no less than 20 µM and the Kd (HLA-B*27:05; [17]) was no less than 20 µM. It also gave a Kd (HLA-A*68:02 [2]) of no less than 20 µM, a Kd (HLA-A*26:03; source organism: Variola virus) of no less than 20 µM and a Kd (HLA-A*02:01 [3]; [17]) of no less than 20 µM. For the same sequence, the Kd (HLA-A*69:01; [17]) was no less than 20 µM, the Kd (HLA-A*01:01 [4]; [17]) was no less than 20 µM and the Kd (HLA-B*57:01) was no less than 20 µM. It also gave a Kd (HLA-B*39:01) of no less than 20 µM, a Kd (HLA-B*40:01 [5]; [17]) of no less than 20 µM and a Kd (HLA-B*46:01) of no less than 20 µM. It also gave a Kd (HLA-B*58:01; [17]) of no less than 20 µM, a Kd (HLA-B*15:17) of no less than 20 µM and a Kd (HLA-A*26:02) of 2.68 µM. For the same sequence, the Kd (HLA-B*18:01) was 4.57 µM, the Kd (HLA-B*35:01) was 2.38 µM and the Kd (HLA-B*07:02 [6]) was no less than 20 µM.
ALRQARAAF showed a Kd (HLA-B*15:01 [1]; source organism: Mycobacterium tuberculosis str. Haarlem) of 0.012 µM, a Kd (HLA-B*51:01) of no less than 20 µM and a Kd (HLA-B*07:02 [7]; [18]) of 0.0089 µM. The Kd (HLA-B*45:06; [18]) was no less than 5 µM, the Kd (HLA-A*32:07; [18]) was 0.157 µM and the Kd (HLA-B*15:42; [18]) was no less than 5 µM. It also gave a Kd (HLA-C*04:01; [18]) of no less than 5 µM.
Work on YLEGHGFRF yielded an IC50 (HLA-B*15:01 [8]) of 17.6 µM, an IC50 (HLA-A*02:01 [9]) of 0.403 µM and an IC50 (HLA-A*01:01 [10]) of no less than 76.3 µM. The IC50 (HLA-A*24:02 [11]) was 0.18 µM.
Work on HVFVCGNNM yielded a Kd (HLA-A*26:03; source organism: Fowlpox virus) of 0.076 µM.
With ATYGWNLVK the Kd (HLA-A*30:01) was 0.212 µM, the Kd (HLA-A*32:01) was 0.755 µM and the Kd (HLA-A*11:01; source organism: Dengue virus 1 Singapore/S275/1990) was no more than 0.001 µM. It also gave a Kd (HLA-B*45:06; [19]) of no less than 5 µM, a Kd (HLA-A*32:07; [19]) of 0.0774 µM and a Kd (HLA-B*15:42; [19]) of no less than 5 µM. The Kd (HLA-B*83:01; [19]) was no less than 5 µM and the Kd (HLA-A*31:01) was 0.00148 µM.
MGAGLVFPI showed a Kd (HLA-B*45:06; [20]) of no less than 5 µM, a Kd (HLA-A*32:07; [20]) of 0.0448 µM and a Kd (HLA-A*68:02 [12]) of no more than 0.0001 µM. It also gave a Kd (HLA-B*15:42; [20]) of no less than 5 µM, a Kd (HLA-B*83:01; [20]) of no less than 5 µM and a Kd (HLA-C*04:01; [20]) of no less than 5 µM.
In the case of VEMQLAVVI, the Kd (HLA-B*15:01 [13]) is reported as no less than 20 µM, the Kd (HLA-B*45:06; [21]) is reported as no less than 5 µM and the Kd (HLA-B*15:42; [21]) is reported as no less than 5 µM. For the same sequence, the Kd (HLA-B*83:01; [21]) was no less than 5 µM, the Kd (HLA-C*04:01; [21]) was no less than 5 µM and the Kd (HLA-B*40:01 [14]) was 0.0079 µM.
ASRGLWDSF showed a Kd (HLA-B*15:01 [1]; source organism: Influenza A virus (A/Puerto Rico/8/34/Mount Sinai(H1N1))) of 0.891 µM, a Kd (HLA-B*27:05; [22]) of no less than 20 µM and a Kd (HLA-A*11:01; [22]) of no less than 20 µM. It also gave a Kd (HLA-A*02:01 [3]; [22]) of no less than 20 µM, a Kd (HLA-B*44:02) of no less than 20 µM and a Kd (HLA-A*69:01; [22]) of no less than 20 µM. It also gave a Kd (HLA-A*01:01 [4]; [22]) of no less than 20 µM, a Kd (HLA-B*08:02) of no less than 20 µM and a Kd (HLA-A*26:01) of no less than 20 µM. The Kd (HLA-B*40:01 [5]; [22]) was no less than 20 µM, the Kd (HLA-B*08:01) was no less than 20 µM and the Kd (HLA-A*24:02 [15]) was no less than 20 µM. It also gave a Kd (HLA-A*03:01) of no less than 20 µM, a Kd (HLA-B*07:02 [7]; [22]) of no less than 20 µM and a Kd (HLA-B*58:01; [22]) of no less than 5 µM.
For VLGSWPVDL, the Kd (HLA-A*02:01 [16]) was 0.209 µM and the Kd (HLA-A*02:06) was 2.46 µM.
HKEGAFFLY was tested, and the IC50 (HLA-A*01:01 [10]) was no less than 136 µM and the IC50 (HLA-A*24:02 [11]) was no less than 149 µM.
